The text below walks through data of paper PMC5389731 (Nucleic Acids Research, 2017).

The target of series [1] is T1, toxin CcdB2 (F plasmid CcdB dimer) (E. coli F plasmid, UniProt P62554 1-101). The series is described as follows: ITC. A general note: ITC needs no label: the signal is the heat of the interaction.
The target in series [2] is T2, CcdA2 (antitoxin dimer);CcdB2 (toxin dimer) (Escherichia coli (F …, UniProt P62552;P62554 1-72;1-101, |)). The series is described as follows: EMSA. (A gel shift assay detects complexes by their altered migration in electrophoresis.)
The target of series [3] is T2, CcdA2 (antitoxin dimer);CcdB2 (toxin …). Nature of the series: EMSA. The source holds these as a separate data set.
The target is the same in series [4]. The series is described as follows: ITC.
Series [5] has as its target T1, toxin CcdB2 (F plasmid CcdB dimer). The series is described as follows: ITC. The source holds these as a separate data set.

B1: antitoxin CcdA2 (F plasmid CcdA dimer, full length) (natural protein, E. coli F plasmid, UniProt P62552 1-72, looked up)
chain: MKQRITVTVDSDSYQLLKAYDVNISGLVSTTMQNEARRLRAERWKAENQEGMAEVARFIEMNGSFADENRDW
For the molecule B1, the “difference between the high and low affinity binding constants” value in series [1] is approximately 1e+06 fold.

B2: Ccd3 (3 binding sites) (dsDNA)
DNA 1: ACGTGCGGTATAAGAATATATACTGATATGTATACCCGAATA
DNA 2: TATTCGGGTATACATATCAGTATATATTCTTATACCGCACGT
Regarding B2, the binding result in series [2] is reported as “binds”.

B3: Random (dsDNA)
DNA 1: TGCCCAAGTGATGCTAAACAAGACTTAGCTGGTTCCTGTGTT
DNA 2: AACACAGGAACCAGCTAAGTCTTGTTTAGCATCACTTGGGCA
On to B3, for which the binding result in series [3] was “no binding”.

B4: CcdITC (3 binding sites) (dsDNA)
DNA 1: GCGGTATAAGAATATATACTGATATGTATACCC
DNA 2: GGGTATACATATCAGTATATATTCTTATACCGC
For the molecule B4, the binding result in series [4] is reported as “binds”. As for RRLRAERWKAENQEGMAEVARFIEMNGSFADENRDW (peptide, UniProt P62552 37-72, looked up) [CcdAC, truncated CcdA comprising the entire C-terminal domain (CcdA^37-72)], the binding result in series [5] was “binds”.
